# According to the supplement of paper PMC10567573:
# B1: KCNA3 (parent)
# chain: GERVVINISGLRFETQLKTLCQFP
# B2: ZNF649 (parent)
# chain: EHERAHRGEKPHGCSLCGKAFYKR
# Variants of: B1
# Assay: protein stability index of a GFP-peptide fusion (GPS, HEK-293T) (PSI 1-6); higher = more stable
# Conditions: c terminus: a fixed tail appended
# 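Further: lentivirally expressed fusions sorted by FACS into six bins by GFP to DsRed ratio, PSI derived from sequencing read proportions per bin multiplied by bin number.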
row,Variant,protein stability index
1,GETVVINISGLRFETQLKTLCQFP [R3T],3.87
2,GEDVVINISGLRFETQLKTLCQFP [R3D],2.44
3,GEHVVINISGLRFETQLKTLCQFP [R3H],1.04
4,GECVVINISGLRFETQLKTLCQFP [R3C],2.36
5,GELVVINISGLRFETQLKTLCQFP [R3L],2.75
6,GEYVVINISGLRFETQLKTLCQFP [R3Y],3.34
7,GEQVVINISGLRFETQLKTLCQFP [R3Q],3.4
8,GEKVVINISGLRFETQLKTLCQFP [R3K],2.73
9,GENVVINISGLRFETQLKTLCQFP [R3N],1.09
10,GEMVVINISGLRFETQLKTLCQFP [R3M],4.26
11,GEPVVINISGLRFETQLKTLCQFP [R3P],2.26
12,GEAVVINISGLRFETQLKTLCQFP [R3A],3.5
13,GESVVINISGLRFETQLKTLCQFP [R3S],2.16
14,GERVVINISGNRFETQLKTLCQFP [L11N],2.94
15,GERVVINISGHRFETQLKTLCQFP [L11H],1.38
16,GERVVINISGSRFETQLKTLCQFP [L11S],1.75
17,GERVVINISGIRFETQLKTLCQFP [L11I],2.68
18,GERVVINISGQRFETQLKTLCQFP [L11Q],1.45
19,GERVVINISGGRFETQLKTLCQFP [L11G],2.45
20,GERVVINISGVRFETQLKTLCQFP [L11V],3.59
21,GERVVINISGERFETQLKTLCQFP [L11E],2.01
22,GERVVINISGTRFETQLKTLCQFP [L11T],1.58
23,GERVVINISGDRFETQLKTLCQFP [L11D],1.81
24,GERVVINISGWRFETQLKTLCQFP [L11W],2.49
25,GERVVINISGFRFETQLKTLCQFP [L11F],1.61
26,GERVVINISGPRFETQLKTLCQFP [L11P],1.54

row,Variant,protein stability index
1,GERVVINISGARFETQLKTLCQFP [L11A],1.34
2,GERVAINISGLRFETQLKTLCQFP [V5A],1.53
3,GERVEINISGLRFETQLKTLCQFP [V5E],1.47
4,GERVNINISGLRFETQLKTLCQFP [V5N],1.76
5,GERVLINISGLRFETQLKTLCQFP [V5L],2.29
6,GERVTINISGLRFETQLKTLCQFP [V5T],2.42
7,GERVCINISGLRFETQLKTLCQFP [V5C],2.49
8,GERVGINISGLRFETQLKTLCQFP [V5G],2.04
9,GERVQINISGLRFETQLKTLCQFP [V5Q],1.94
10,GERVDINISGLRFETQLKTLCQFP [V5D],1.55
11,GERVSINISGLRFETQLKTLCQFP [V5S],1.67
12,GERVKINISGLRFETQLKTLCQFP [V5K],2.49
13,GERVFINISGLRFETQLKTLCQFP [V5F],2.05
14,GERVYINISGLRFETQLKTLCQFP [V5Y],2.39
15,GERVIINISGLRFETQLKTLCQFP [V5I],2.99
16,GERVRINISGLRFETQLKTLCQFP [V5R],2.18
17,GERVPINISGLRFETQLKTLCQFP [V5P],2.17
18,GERVHINISGLRFETQLKTLCQFP [V5H],1.93
19,GERVVNNISGLRFETQLKTLCQFP [I6N],3.47
20,GERVVPNISGLRFETQLKTLCQFP [I6P],3.15
21,GERVVRNISGLRFETQLKTLCQFP [I6R],2.21
22,GERVVSNISGLRFETQLKTLCQFP [I6S],2.86
23,GERVVYNISGLRFETQLKTLCQFP [I6Y],1.33
24,GERVVCNISGLRFETQLKTLCQFP [I6C],1.38
25,GERVVGNISGLRFETQLKTLCQFP [I6G],1.74
26,GERVVTNISGLRFETQLKTLCQFP [I6T],2.75

row,Variant,protein stability index
1,GERVVMNISGLRFETQLKTLCQFP [I6M],1.32
2,GERVVDNISGLRFETQLKTLCQFP [I6D],2.46
3,GERVVQNISGLRFETQLKTLCQFP [I6Q],3.56
4,GERVVANISGLRFETQLKTLCQFP [I6A],2.21
5,GERVVKNISGLRFETQLKTLCQFP [I6K],2.68
6,GERVVENISGLRFETQLKTLCQFP [I6E],2.52
7,GERVVHNISGLRFETQLKTLCQFP [I6H],1.78
8,GQRVVINISGLRFETQLKTLCQFP [E2Q],3.74
9,GFRVVINISGLRFETQLKTLCQFP [E2F],1.98
10,GLRVVINISGLRFETQLKTLCQFP [E2L],3.35
11,GMRVVINISGLRFETQLKTLCQFP [E2M],2.93
12,GTRVVINISGLRFETQLKTLCQFP [E2T],2.21
13,GGRVVINISGLRFETQLKTLCQFP [E2G],2.35
14,GHRVVINISGLRFETQLKTLCQFP [E2H],1.45
15,GPRVVINISGLRFETQLKTLCQFP [E2P],4.1
16,GKRVVINISGLRFETQLKTLCQFP [E2K],2.2
17,GNRVVINISGLRFETQLKTLCQFP [E2N],2.26
18,GERVVIPISGLRFETQLKTLCQFP [N7P],1.53
19,GERVVIYISGLRFETQLKTLCQFP [N7Y],1.8
20,GERVVIHISGLRFETQLKTLCQFP [N7H],4.19
21,GERVVIEISGLRFETQLKTLCQFP [N7E],2.1
22,GERVVIQISGLRFETQLKTLCQFP [N7Q],2.66
23,GERVVIGISGLRFETQLKTLCQFP [N7G],2.14
24,GERVVISISGLRFETQLKTLCQFP [N7S],4.73
25,GERVVICISGLRFETQLKTLCQFP [N7C],2.1
26,GERVVIDISGLRFETQLKTLCQFP [N7D],1.83

# Variants of: B2
# Assay: as above
# Conditions: c terminus: a fixed tail appended
row,Variant,protein stability index
1,EHERAHRGEKPHGCSLCGKAFYTR [K23T],2.8
2,EHERAHRGEKPHGCSLCGKAFYSR [K23S],2.03
3,EHERAHRGEKPHGCSLCGKAFYVR [K23V],1.95
4,EHERAHRGEKPHGCSLCGKAFYKG [R24G],3.11
5,EHERAHRGEKPHGCSLCGKAFYKA [R24A],3.46
6,EHERAHRGEKPHGCSLCGKAFYKD [R24D],3.35
7,EHERAHRGEKPHGCSLCGKAFYKQ [R24Q],4.13
8,EHERAHRGEKPHGCSLCGKAFYKT [R24T],4.1
9,EHERAHRGEKPHGCSLCGKAFYKV [R24V],2.05
10,EHERAHRGEKPHGCSLCGKAFYKF [R24F],2.65
11,EHERAHRGEKPHGCSLCGKAFYKW [R24W],3.25
12,EHERAHRGEKPHGCSLCGKAFYKI [R24I],2.81
13,EHERAHRGEKPHGCSLCGKAFYKY [R24Y],3.5
14,EHERAHRGEKPHGCSLCGKAFYKP [R24P],3
15,EHERAHRGEKPHGCSLCGKAFYKS [R24S],4.19
16,EHERAHRGEKPHGCSLCGKAFYKC [R24C],4.03
